B1: Calcium-binding and coiled-coil domain-containing protein 2 (Homo sapiens), Q13137 (parent)
chain: MEETIKDPPTSAVLLDHCHFSQVIFNSVEKFYIPGGDVTCHYTFTQHFIPRRKDWIGIFRVGWKTTREYYTFMWVTLPIDLNNKSAKQQEVQFKAYYLPKDDEYYQFCYVDEDGVVRGASIPFQFRPENEEDILVVTTQGEVEEIEQHNKELCKENQELKDSCISLQKQNSDMQAELQKKQEELETLQSINKKLELKVKEQKDYWETELLQLKEQNQKMSSENEKMGIRVDQLQAQLSTQEKEMEKLVQGDQDKTEQLEQLKKENDHLFLSLTEQRKDQKKLEQTVEQMKQNETTAMKKQQELMDENFDLSKRLSENEIICNALQRQKERLEGENDLLKRENSRLLSYMGLDFNSLPYQVPTSDEGGARQNPGLAYGNPYSGIQESSSPSPLSIKKCPICKADDICDHTLEQQQMQPLCFNCPICDKIFPATEKQIFEDHVFCHSL
partner: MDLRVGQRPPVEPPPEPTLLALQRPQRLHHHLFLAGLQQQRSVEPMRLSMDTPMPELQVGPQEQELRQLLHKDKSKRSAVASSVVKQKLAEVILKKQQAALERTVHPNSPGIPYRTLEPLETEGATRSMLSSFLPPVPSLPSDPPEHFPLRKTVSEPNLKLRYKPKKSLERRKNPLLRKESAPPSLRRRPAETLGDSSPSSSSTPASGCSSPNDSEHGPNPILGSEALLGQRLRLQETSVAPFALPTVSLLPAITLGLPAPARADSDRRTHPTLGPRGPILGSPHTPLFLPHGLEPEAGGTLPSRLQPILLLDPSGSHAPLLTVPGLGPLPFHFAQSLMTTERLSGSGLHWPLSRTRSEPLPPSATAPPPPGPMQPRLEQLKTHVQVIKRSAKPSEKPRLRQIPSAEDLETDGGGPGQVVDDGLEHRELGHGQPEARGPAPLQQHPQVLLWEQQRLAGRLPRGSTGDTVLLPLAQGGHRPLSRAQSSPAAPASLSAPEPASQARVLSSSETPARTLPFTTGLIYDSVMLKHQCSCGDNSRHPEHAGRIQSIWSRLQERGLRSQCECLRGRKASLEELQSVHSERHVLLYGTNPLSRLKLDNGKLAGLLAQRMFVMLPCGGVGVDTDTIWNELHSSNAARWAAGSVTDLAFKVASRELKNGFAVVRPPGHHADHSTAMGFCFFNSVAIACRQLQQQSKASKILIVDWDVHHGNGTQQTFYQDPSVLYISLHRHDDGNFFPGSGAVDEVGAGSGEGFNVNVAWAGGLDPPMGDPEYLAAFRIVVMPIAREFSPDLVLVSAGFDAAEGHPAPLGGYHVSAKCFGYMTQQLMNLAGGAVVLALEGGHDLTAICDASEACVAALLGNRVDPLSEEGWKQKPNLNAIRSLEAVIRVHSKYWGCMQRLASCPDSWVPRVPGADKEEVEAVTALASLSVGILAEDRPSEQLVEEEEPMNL
B2: Protein sprouty homolog 1 (Homo sapiens), O43609 (parent)
chain: MDPQNQHGSGSSLVVIQQPSLDSRQRLDYEREIQPTAILSLDQIKAIRGSNEYTEGPSVVKRPAPRTAPRQEKHERTHEIIPINVNNNYEHRHTSHLGHAVLPSNARGPILSRSTSTGSAASSGSNSSASSEQGLLGRSPPTRPVPGHRSERAIRTQPKQLIVDDLKGSLKEDLTQHKFICEQCGKCKCGECTAPRTLPSCLACNRQCLCSAESMVEYGTCMCLVKGIFYHCSNDDEGDSYSDNPCSCSQSHCCSRYLCMGAMSLFLPCLLCYPPAKGCLKLCRRCYDWIHRPGCRCKNSNTVYCKLESCPSRGQGKPS
partner: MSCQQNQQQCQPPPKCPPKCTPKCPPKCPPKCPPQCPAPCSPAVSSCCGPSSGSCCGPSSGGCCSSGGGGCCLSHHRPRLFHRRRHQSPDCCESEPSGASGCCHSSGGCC
B3: Alpha-taxilin (Homo sapiens), P40222 (parent)
chain: MKNQDKKNGAAKQSNPKSSPGQPEAGPEGAQERPSQAAPAVEAEGPGSSQAPRKPEGAQARTAQSGALRDVSEELSRQLEDILSTYCVDNNQGGPGEDGAQGEPAEPEDAEKSRTYVARNGEPEPTPVVNGEKEPSKGDPNTEEIRQSDEVGDRDHRRPQEKKKAKGLGKEITLLMQTLNTLSTPEEKLAALCKKYAELLEEHRNSQKQMKLLQKKQSQLVQEKDHLRGEHSKAVLARSKLESLCRELQRHNRSLKEEGVQRAREEEEKRKEVTSHFQVTLNDIQLQMEQHNERNSKLRQENMELAERLKKLIEQYELREEHIDKVFKHKDLQQQLVDAKLQQAQEMLKEAEERHQREKDFLLKEAVESQRMCELMKQQETHLKQQLALYTEKFEEFQNTLSKSSEVFTTFKQEMEKMTKKIKKLEKETTMYRSRWESSNKALLEMAEEKTVRDKELEGLQVKIQRLEKLCRALQTERNDLNKRVQDLSAGGQGSLTDSGPERRPEGPGAQAPSSPRVTEAPCYPGAPSTEASGQTGPQEPTSARA
partner: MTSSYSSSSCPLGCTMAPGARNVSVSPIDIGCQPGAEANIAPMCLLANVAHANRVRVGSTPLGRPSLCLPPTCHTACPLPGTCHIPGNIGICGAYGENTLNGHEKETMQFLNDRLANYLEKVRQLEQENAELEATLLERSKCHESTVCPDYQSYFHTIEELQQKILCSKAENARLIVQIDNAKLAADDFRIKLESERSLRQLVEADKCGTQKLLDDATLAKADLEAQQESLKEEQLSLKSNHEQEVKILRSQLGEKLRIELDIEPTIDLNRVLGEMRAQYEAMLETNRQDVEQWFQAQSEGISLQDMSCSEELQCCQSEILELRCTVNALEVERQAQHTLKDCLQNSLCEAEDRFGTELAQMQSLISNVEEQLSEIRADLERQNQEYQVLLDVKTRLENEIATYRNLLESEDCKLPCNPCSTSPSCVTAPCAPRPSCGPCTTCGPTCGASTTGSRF

Variants of: B1
Details: with hdac7_human HDAC7, Q8WUI4

effect of a mutation on the interaction	Variant
with no effect	P389A
with no effect	T273A

Variants of: B2
Details: with lce2d_human LCE2D

effect of a mutation on the interaction	Variant
with no effect	A37T
with no effect	R296K
with no effect	R24H

Variants of: B3
Details: with krt38_human KRT38, O76015

effect of a mutation on the interaction	Variant
with no effect	S514R

Source: IntAct's records for PubMed 31515488
